Laboratory results taken from IntAct's records for PubMed 28258151.

Biological target: cfah_human CFH (UniProt P08603)
Sequence (P08603 whole entry): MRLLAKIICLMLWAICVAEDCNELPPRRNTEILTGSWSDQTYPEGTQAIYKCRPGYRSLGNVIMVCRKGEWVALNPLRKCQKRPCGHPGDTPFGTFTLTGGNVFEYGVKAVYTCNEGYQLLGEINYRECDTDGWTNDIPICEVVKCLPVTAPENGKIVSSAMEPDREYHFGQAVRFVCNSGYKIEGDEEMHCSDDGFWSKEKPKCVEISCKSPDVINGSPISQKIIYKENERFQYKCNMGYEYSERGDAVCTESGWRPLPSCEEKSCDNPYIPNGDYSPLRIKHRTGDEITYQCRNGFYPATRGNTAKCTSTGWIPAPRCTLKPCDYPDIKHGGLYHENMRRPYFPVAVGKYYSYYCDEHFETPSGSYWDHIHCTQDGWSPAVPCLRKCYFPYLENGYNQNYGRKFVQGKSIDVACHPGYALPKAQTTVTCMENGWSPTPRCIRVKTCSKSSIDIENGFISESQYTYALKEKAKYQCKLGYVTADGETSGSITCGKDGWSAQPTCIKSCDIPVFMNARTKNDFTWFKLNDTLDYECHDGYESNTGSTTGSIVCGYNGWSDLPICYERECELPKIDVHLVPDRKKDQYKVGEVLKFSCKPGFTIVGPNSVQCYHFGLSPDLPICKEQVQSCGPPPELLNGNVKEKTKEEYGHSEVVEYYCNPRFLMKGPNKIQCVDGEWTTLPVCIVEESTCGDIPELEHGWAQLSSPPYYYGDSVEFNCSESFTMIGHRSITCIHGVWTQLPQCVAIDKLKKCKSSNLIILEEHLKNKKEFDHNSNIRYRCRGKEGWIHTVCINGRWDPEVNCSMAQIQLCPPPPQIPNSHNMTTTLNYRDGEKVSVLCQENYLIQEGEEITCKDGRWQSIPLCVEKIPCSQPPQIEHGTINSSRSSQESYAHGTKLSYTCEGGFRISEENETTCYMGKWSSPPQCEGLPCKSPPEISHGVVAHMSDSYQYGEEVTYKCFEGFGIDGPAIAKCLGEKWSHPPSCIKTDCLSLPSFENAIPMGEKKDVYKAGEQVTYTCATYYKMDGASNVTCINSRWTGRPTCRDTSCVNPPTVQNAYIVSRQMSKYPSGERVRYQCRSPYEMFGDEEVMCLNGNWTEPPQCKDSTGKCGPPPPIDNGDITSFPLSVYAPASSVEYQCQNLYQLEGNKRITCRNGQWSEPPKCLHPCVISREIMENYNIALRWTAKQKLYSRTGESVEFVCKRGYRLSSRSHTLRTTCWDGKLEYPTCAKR

Row | Substance | effect of a mutation on the interaction
1 | Serine-aspartate repeat-containing protein E (Staphylococcus aureus (strain Mu50 / ATCC 700699)), Q932F7 D334A | decreasing interaction
2 | Serine-aspartate repeat-containing protein E (Staphylococcus aureus (strain Mu50 / ATCC 700699)), Q932F7 D588A | disrupting interaction
3 | Serine-aspartate repeat-containing protein E (Staphylococcus aureus (strain Mu50 / ATCC 700699)), Q932F7 L335A | decreasing interaction
4 | Serine-aspartate repeat-containing protein E (Staphylococcus aureus (strain Mu50 / ATCC 700699)), Q932F7 Q419A | decreasing interaction
